Data from patent publication US20170189507A1, “NOVEL PEPTIDES AND COMBINATION OF PEPTIDES FOR USE IN IMMUNOTHERAPY AGAINST VARIOUS CANCERS” (immatics biotechnologies GmbH, priority 2015, published 2017).

Tests used:
[1] = target: HLA-A*02 (Homo sapiens, UniProt P04439, D140Y/D185E/D98H/E176V/E277Q/G131W/G231S/I119V/I121R/I166T/I218V/N151K/N90K/P208A/P217A/Q86G/Q94H/R138H/R169H); experiment: MHC binding assay (UV-ligand exchange, beta2m ELISA), HLA-A*02; conditions: MHC class I binding score, peptide exchange yield
Excerpt: Candidate peptides for T cell based therapies according to the present invention were further tested for their MHC binding capacity (affinity). The individual peptide-MHC complexes were produced by UV-ligand exchange, where a UV-sensitive peptide is cleaved upon UV-irradiation, and exchanged with the peptide of interest as analyzed. Only peptide candidates that can effectively bind and stabilize the peptide-receptive MHC molecules prevent dissociation of the MHC complexes. To determine the yield of the exchange reaction, an ELISA was performed based on the detection of the light chain ([…] of stabilized MHC complexes. The assay was performed as generally described in Rodenko et al. (Rodenko et al., 2006).
96 well MAXISorp plates (NUNC) were coated over night with 2 ug/ml streptavidin in PBS at room temperature, washed 4× and blocked for 1 h at 37° C. in 2% BSA containing blocking buffer. Refolded HLA-A*02:01/MLA-001 monomers served as standards, covering the range of 15-500 ng/ml. Peptide-MHC monomers of the UV-exchange reaction were diluted 100 fold in blocking buffer. Samples were incubated for 1 h at 37° C., washed four times, incubated with 2 ug/ml HRP conjugated anti-β2m for 1 h at 37° C., washed again and detected with TMB solution that is stopped with […]. Absorption was measured at 450 nm. Candidate peptides that show a high exchange yield (preferably higher than 50%, most preferred higher than 75%) are generally preferred for a generation and production of antibodies or fragments thereof, and/or T cell receptors or fragments thereof, as they show sufficient avidity to the MHC molecules and prevent dissociation of the MHC complexes.

[2] = test system: CD8+ T cells; experiment: In vitro immunogenicity: T-cell priming with aAPCs loaded with peptide/MHC complexes and anti-CD28 antibody, pMHC multimer readout; type: cell-based, human; conditions: in vitro immunogenicity of HLA class I peptides; peptide-specific multimer+ wells after aAPC priming of CD8+ T cells
Procedure: In an aspect, the peptides are pre-screened for immunogenicity before being included in the warehouse. By way of example, and not limitation, the immunogenicity of the peptides included in the warehouse is determined by a method comprising in vitro T-cell priming through repeated stimulations of CD8+ T cells from healthy donors with artificial antigen presenting cells loaded with peptide/MHC complexes and anti-CD28 antibody.
In order to obtain information regarding the immunogenicity of the TUMAPs of the present invention, the inventors performed investigations using an in vitro T-cell priming assay based on repeated stimulations of CD8+ T cells with artificial antigen presenting cells (aAPCs) loaded with peptide/MHC complexes and anti-CD28 antibody.
In order to perform in vitro stimulations by artificial antigen presenting cells loaded with peptide-MHC complex (pMHC) and anti-CD28 antibody, the inventors first isolated CD8+ T cells from fresh HLA-A*02 leukapheresis products via positive selection using CD8 microbeads (Miltenyi Biotec, Bergisch-Gladbach, Germany) of healthy donors obtained from the University clinics Mannheim, Germany, after informed consent.
PBMCs and isolated CD8+ lymphocytes were incubated in T-cell medium (TCM) until use consisting of RPMI-Glutamax (Invitrogen, Karlsruhe, Germany) supplemented with 10% heat inactivated human AB serum (PAN-Biotech, Aidenbach, Germany), 100 U/ml Penicillin/100 μg/ml Streptomycin (Cambrex, Cologne, Germany), 1 mM sodium pyruvate (CC Pro, Oberdorla, Germany), 20 μg/ml Gentamycin (Cambrex). 2.5 ng/ml IL7 (PromoCell, Heidelberg, Germany) and 10 U/ml IL-2 (Novartis Pharma, Nurnberg, Germany) were also added to the TCM at this step.
Generation of pMHC/anti-CD28 coated beads, T-cell stimulations and readout was performed in a highly defined in vitro system using four different pMHC molecules per stimulation condition and 8 different pMHC molecules per readout condition.
The purified co-stimulatory mouse IgG2a anti human CD28 Ab 9.3 (Jung et al., 1987) was chemically biotinylated using Sulfo-N-hydroxysuccinimidobiotin as recommended by the manufacturer (Perbio, Bonn, Germany). Beads used were 5.6 μm diameter streptavidin coated polystyrene particles (Bangs Laboratories, Illinois, USA).
pMHC used for positive and negative control stimulations were A*0201/MLA-001 (peptide […] (SEQ ID NO. 303) from modified Melan-A/MART-1) and A*0201/DDX5-001 ([…] from DDX5, SEQ ID NO. 304), respectively.
800.000 beads/200 μl were coated in 96-well plates in the presence of 4×12.5 ng different biotin-pMHC, washed and 600 ng biotin anti-CD28 were added subsequently in a volume of 200 μl. Stimulations were initiated in 96-well plates by co-incubating […] CD8+ T cells with 2×10^5 washed coated beads in 200 μl TCM supplemented with 5 ng/ml IL-12 (PromoCell) for 3 days at 37° C. Half of the medium was then exchanged by fresh TCM supplemented with 80 U/ml IL-2 and incubating was continued for 4 days at 37° C. This stimulation cycle was performed for a total of three times. For the pMHC multimer readout using 8 different pMHC molecules per condition, a twodimensional combinatorial coding approach was used as previously described (Andersen et al., 2012) with minor modifications encompassing coupling to 5 different fluorochromes. Finally, multimeric analyses were performed by staining the cells with Live/dead near IR dye (Invitrogen, Karlsruhe, Germany), CD8-FITC antibody clone SK1 (BD, Heidelberg, Germany) and fluorescent pMHC multimers. For analysis, a BD LSRII SORP cytometer equipped with appropriate lasers and filters was used. Peptide specific cells were calculated as percentage of total CD8+ cells. Evaluation of multimeric analysis was done using the FlowJo software (Tree Star, Oregon, USA). In vitro priming of specific multimer+ CD8+ lymphocytes was detected by comparing to negative control stimulations.

Substance | Peptide exchange [1] | Wells positive [%] [2]
4 (KLMPGTYTL; listed as Homo sapiens) [compound 4] | ++++ (>=75% = ++++) | + (<20% = +)
12 (GLLPLLHRA; listed as Homo sapiens) [compound 12] | ++++ (>=75% = ++++) | ++++ (>=70% = ++++)
125 (SLADYEHFV; listed as Homo sapiens) [compound 125] | ++++ (>=75% = ++++) | –
126 (QMFQYFITV; listed as Homo sapiens) [compound 126] | ++++ (>=75% = ++++) | –
129 (RLQDILWFL; listed as Homo sapiens) [compound 129] | ++++ (>=75% = ++++) | –
133 (ALLPRLHQL; listed as Homo sapiens) [compound 133] | ++++ (>=75% = ++++) | –
147 (YLMDDTVEI; listed as Homo sapiens) [compound 147] | ++++ (>=75% = ++++) | –
153 (FISERVEVV; listed as Homo sapiens) [compound 153] | ++++ (>=75% = ++++) | –
229 (AILAHLNTV; listed as Homo sapiens) [compound 229] | ++++ (>=75% = ++++) | –
245 (SLLDLPLSL; listed as Homo sapiens) [compound 245] | ++++ (>=75% = ++++) | –
248 (YLDRFLAGV; listed as Homo sapiens) [compound 248] | ++++ (>=75% = ++++) | –
249 (GLCERLVSL; listed as Homo sapiens) [compound 249] | ++++ (>=75% = ++++) | + (<20% = +)
257 (GLYTDPCGV; listed as Homo sapiens) [compound 257] | ++++ (>=75% = ++++) | –
258 (LLSERFINV; listed as Homo sapiens) [compound 258] | ++++ (>=75% = ++++) | –
